How the values were obtained:
[1] = biological target: T1, human Natriuretic Peptide Receptor 1 (hNPR1) (human, UniProt P16066 33-473, limits assumed); assay: SET, FabCys
T1 construct: pannings used NPR1-hFc; also called NPR1-hFc
T1 sequence: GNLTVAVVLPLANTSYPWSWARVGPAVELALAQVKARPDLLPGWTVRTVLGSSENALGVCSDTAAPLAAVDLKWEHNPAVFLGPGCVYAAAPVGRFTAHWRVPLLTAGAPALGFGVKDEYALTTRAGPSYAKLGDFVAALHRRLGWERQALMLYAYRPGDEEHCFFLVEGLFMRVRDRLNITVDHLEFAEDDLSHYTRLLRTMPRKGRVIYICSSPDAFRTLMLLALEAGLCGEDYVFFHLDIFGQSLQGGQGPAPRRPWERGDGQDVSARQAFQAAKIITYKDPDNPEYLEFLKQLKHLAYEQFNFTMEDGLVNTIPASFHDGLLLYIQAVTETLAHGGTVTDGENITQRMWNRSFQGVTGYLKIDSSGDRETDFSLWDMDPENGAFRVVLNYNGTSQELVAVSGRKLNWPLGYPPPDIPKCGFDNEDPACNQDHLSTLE

[2] = biological target: T2, hNPR1-ANP complex (human, UniProt P01160 124-151, limits assumed); assay: SET, FabCys
T2 construct: hNPR1 antigen in the presence of ANP; also called hNPR1 + 100 nM ANP
T2 sequence: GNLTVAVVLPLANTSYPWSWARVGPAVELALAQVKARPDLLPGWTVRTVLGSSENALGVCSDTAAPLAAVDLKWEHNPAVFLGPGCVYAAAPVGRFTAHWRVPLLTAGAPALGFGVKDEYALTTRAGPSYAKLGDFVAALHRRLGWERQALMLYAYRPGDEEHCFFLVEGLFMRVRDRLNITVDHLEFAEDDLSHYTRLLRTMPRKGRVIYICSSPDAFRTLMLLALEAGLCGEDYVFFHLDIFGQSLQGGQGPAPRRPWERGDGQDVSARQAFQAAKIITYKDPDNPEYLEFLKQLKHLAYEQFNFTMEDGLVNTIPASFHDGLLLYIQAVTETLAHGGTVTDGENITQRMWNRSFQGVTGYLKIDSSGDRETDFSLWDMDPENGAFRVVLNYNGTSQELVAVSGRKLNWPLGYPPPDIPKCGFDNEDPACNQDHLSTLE
T2 sequence (peptide): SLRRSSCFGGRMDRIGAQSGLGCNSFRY

[3] = biological target: T3, rat NPR1 (rNPR1) (rat, UniProt P18910 29-469, limits assumed); assay: SET, FabCys
T3 construct: Soluble antigen
T3 sequence: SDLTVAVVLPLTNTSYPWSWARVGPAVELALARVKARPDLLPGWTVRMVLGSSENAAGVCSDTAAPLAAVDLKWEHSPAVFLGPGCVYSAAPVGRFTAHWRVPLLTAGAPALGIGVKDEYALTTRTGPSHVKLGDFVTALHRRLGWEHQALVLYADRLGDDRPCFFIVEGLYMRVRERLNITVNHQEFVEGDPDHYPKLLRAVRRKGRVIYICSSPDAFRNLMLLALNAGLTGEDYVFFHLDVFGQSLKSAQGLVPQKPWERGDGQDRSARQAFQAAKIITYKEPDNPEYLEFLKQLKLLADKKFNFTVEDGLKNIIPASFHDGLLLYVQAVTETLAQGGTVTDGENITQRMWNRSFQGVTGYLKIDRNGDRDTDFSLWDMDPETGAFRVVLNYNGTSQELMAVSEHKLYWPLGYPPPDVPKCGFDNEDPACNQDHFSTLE

[4] = biological target: T4, rNPR1-ANP complex (rat, UniProt P01160 124-151 (human entry), limits assumed); assay: SET, FabCys
T4 construct: rNPR1 antigen in the presence of ANP; also called rNPR1 + 100 nM ANP
T4 sequence: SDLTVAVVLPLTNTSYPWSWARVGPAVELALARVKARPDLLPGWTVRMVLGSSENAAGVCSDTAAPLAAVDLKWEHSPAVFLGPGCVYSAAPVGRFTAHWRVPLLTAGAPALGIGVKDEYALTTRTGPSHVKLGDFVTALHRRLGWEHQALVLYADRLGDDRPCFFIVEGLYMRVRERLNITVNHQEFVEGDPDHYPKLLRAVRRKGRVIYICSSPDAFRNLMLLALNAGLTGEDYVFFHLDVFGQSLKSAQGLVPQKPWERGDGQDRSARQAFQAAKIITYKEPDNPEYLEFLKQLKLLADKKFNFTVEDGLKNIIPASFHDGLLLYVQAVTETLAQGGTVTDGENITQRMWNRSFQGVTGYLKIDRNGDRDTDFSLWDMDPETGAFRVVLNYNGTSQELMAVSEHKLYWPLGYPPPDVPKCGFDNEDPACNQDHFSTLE
T4 sequence (peptide): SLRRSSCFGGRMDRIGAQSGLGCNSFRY

[5] = biological target: T2, hNPR1-ANP complex; assay: Octet, FabCys
[6] = biological target: T4, rNPR1-ANP complex; assay: Octet, FabCys

B1: ZZ12 (FabCys format) (Fab, V domains shown)
VH: EVQLVESGGGLVQPGGSLRLSCAASGFSFSKYYLNWVRQAPGKGLEWVASIHQQAHEKKYVESVKGRFTISRDNAKNSLYLQMNSLRAEDTAVYYCARSLRRRSTEHAGFDVWGQGTLVTVSS
VL: DIQMTQSPSSLSASVGDRVTITCRASQGISNYLAWYQQKPGKVPKLLIYAASTLQSGVPSRFSGSGSGTDFTLTISSLQPEDVATYYCQQADKFPYTFGQGTKVEIK
notes: Monovalent FabCys
Kd [1]: 6.7 nM
Kd [2]: 0.32 nM
Kd [3]: 2.1 nM
Kd [4]: 1.4 nM
Kd [5]: 0.04 nM
Kd [6]: 0.1 nM
